Results as given in US9926369B2, “Methods for treating hepatocellular cancer by administering an anti-Ang-2 antibody” (Regeneron Pharmaceuticals, Inc., priority 2009, dated 2018).
Where “and” joins values, the source holds several entries; their conditions need not be identical. Equal entries are not always repeated.

Key:
hAng-2FD-mFc F-469-L = molecular target: T1, hAng-2FD-mFc F-469-L (Homo sapiens, UniProt O15123, F469L); assay: Ang-2FD-mFc point mutant binding experiment (SPR), F-469-L; conditions: F-469-L mutant captured; antibody/peptibody at 100 nM; 25° C.
T1 construct: made in house
T1 sequence (O15123 with tags, fused parts or gaps F469L): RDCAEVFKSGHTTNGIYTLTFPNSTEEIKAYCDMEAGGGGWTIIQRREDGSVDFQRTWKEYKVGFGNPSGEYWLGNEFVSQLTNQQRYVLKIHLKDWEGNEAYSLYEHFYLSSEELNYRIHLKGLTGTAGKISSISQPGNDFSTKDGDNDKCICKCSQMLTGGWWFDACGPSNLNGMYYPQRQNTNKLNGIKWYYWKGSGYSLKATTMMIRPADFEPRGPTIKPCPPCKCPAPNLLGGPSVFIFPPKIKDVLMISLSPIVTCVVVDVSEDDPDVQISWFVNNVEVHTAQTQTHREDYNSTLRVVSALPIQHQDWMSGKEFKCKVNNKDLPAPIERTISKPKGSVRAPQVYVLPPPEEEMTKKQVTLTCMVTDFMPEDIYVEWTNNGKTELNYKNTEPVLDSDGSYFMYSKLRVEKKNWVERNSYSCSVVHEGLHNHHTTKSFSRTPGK
Text: (§1) To further characterize binding between hAng2 and anti-hAng2 mAbs of the invention, seven variant hAng2-FD-mFc proteins were generated, each containing a single point mutation. Amino acids selected for mutation were based on the difference in sequence between hAng-2 and hAng-1 in the region that interacts with hTie-2 (FIG. 1). In particular, amino acids within the fibrinogen-like domain (FD) of Ang-2 which are believed to interact with Tie-2 based on crystal structure analysis, but which differ from the corresponding amino acid in Ang-1, were individually mutated to the corresponding hAng-1 residue. The results of this example indicate the amino acid residues of hAng-2 with which the Ang-2 preferential binding antibodies interact.
(§2) In this experiment, each of the seven hAng-2FD-mFc mutant proteins were captured (˜147-283 RU) on an anti-mouse-Fc surface created through direct chemical coupling to a BIACORE™ chip. Then each Ang-2 antibody (or peptibody, as the case may be) at 100 nM was injected over the captured mFc-tagged hAng-2FD protein surface at a flowrate of 50 μl/min for 180 sec, and the dissociation of variant hAng2-FD-mFc and antibody was monitored in real time for 20 min at 25° C.

WT Ang-2FD-mFc construct = WT Ang-2FD-mFc construct (Homo sapiens, UniProt O15123); assay: Ang-2FD-mFc point mutant binding experiment (SPR), wild-type; conditions: WT hAng-2FD-mFc captured; antibody/peptibody at 100 nM; 25° C.
Sequence of WT Ang-2FD-mFc construct (O15123 with tags, fused parts or gaps): as the sequence (O15123 with tags, fused parts or gaps F469L) above, with L188F counted along it
Text: as §1, §2

hAng-2-WT = molecular target: T2, hAng-2-WT (Homo sapiens, UniProt O15123); assay: SPR binding to full-length wild-type human Ang-2 (preferential binding)
T2 construct: wild-type human Ang-2 (hAng-2-WT)
T2 sequence (O15123 19-496): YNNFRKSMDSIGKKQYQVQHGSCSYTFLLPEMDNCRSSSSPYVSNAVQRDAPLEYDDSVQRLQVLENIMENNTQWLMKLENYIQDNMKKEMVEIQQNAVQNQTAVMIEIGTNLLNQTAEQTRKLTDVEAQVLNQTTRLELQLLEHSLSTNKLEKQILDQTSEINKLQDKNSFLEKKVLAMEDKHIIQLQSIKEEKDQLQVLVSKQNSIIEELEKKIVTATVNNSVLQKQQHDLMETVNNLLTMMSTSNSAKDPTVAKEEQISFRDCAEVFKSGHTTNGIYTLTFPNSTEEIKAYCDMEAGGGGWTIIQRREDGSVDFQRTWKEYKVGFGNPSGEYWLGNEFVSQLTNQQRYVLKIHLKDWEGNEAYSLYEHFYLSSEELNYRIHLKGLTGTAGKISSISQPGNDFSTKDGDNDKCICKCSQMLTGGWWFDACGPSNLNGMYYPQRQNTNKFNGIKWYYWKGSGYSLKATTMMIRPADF
Protocol: Binding experiments (plasmon resonance assays) were conducted to ascertain whether selected antibodies bound to both Ang-2 and Ang-1 or if they preferentially bound to Ang-2 only. Each selected antibody or control construct was captured at a flow rate of 40 μL/min for 1 minute on a goat anti-human IgG polyclonal antibody surface created through direct chemical coupling to a BIACORE™ chip to form a captured antibody surface. Full-length wild-type human Ang-1 or Ang-2 at a concentration of 25 nM or 0.78 nM were injected over the captured antibody surface at a flowrate of 60 μL/min for 3 minutes, and antigen-antibody dissociation was monitored in real time for 20 minutes at either 25° C. or 37° C.

Monomeric hAng-2FD = molecular target: T3, Monomeric hAng-2FD (Homo sapiens, UniProt O15123); assay: SPR binding to monomeric hAng-2FD (Table 8)
T3 sequence (O15123 282-496 limits assumed): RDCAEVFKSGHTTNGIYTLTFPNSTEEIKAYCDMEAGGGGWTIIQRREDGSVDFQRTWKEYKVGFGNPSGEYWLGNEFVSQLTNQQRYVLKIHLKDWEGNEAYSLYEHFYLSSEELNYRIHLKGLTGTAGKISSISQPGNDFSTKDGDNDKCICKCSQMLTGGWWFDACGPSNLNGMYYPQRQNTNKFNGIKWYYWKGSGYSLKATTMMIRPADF
Protocol: Equilibrium dissociation constants (KD values) for the binding of selected purified Ang-2 antibodies to dimeric fibrinogen-like domain of human (SEQ ID NO: 519), mouse (Mus musculus; SEQ ID NO: 520) and monkey (Macca fascicularis; SEQ ID NO: 521) Ang-2 (Ang-2FD) conjugated to human IgG1 (SEQ ID NO:528) were determined by surface kinetics using a real-time biosensor surface plasmon resonance assay. Antibody was captured on a goat anti-mouse IgG polyclonal antibody surface, a goat anti-human κ polyclonal antibody (Southern Biotech, Birmingham, Ala.) surface or a goat anti-human IgG polyclonal antibody (Jackson Immuno Research Lab, West Grove, Pa.) surface created through direct amine coupling to a BIACORE™ CM5 sensor chip to form a captured antibody surface. Varying concentrations (ranging from 50 nM to 6.25 nM) of protein were injected at 100 μl/min over captured antibody surface for 90 seconds. Antigen-antibody binding and dissociation were monitored in real time at room temperature. Kinetic analysis was performed to calculate KD and half-life of antigen/antibody complex dissociation.
In yet another experiment, KD values for selected purified antibodies that bind to wild-type human Ang-2 (hAng-2-WT; SEQ ID NO: 518) and the fibrinogen-like domain of human Ang2 (hAng-2FD) were determined (as described above).

hAng-2FD-mFc I-434-M = molecular target: T4, hAng-2FD-mFc I-434-M (Homo sapiens, UniProt O15123, I434M); assay: Ang-2FD-mFc point mutant binding experiment (SPR), I-434-M; conditions: I-434-M mutant captured; antibody/peptibody at 100 nM; 25° C.
T4 construct: made in house
T4 sequence (O15123 with tags, fused parts or gaps I434M): as the sequence (O15123 with tags, fused parts or gaps F469L) above, with I153M, L188F counted along it
Text: as §1, §2

MMT tumors = assay: MMT tumor growth in SCID mice; assay type: in vivo; conditions: H1H685P 12.5 mg/kg, VEGF Trap 5 mg/kg
Protocol: To provide additional evidence of combination efficacy, the effect of the H1H685P+VEGF Trap combination on the growth of MMT tumors was assessed. 0.5×10^6 MMT cells were implanted subcutaneously into the right hind flank of 6-8 week-old female SCID mice. […] The Fc and H1H685P groups were given 3 doses over 9 days. The VEGF Trap and combination groups were given 4 doses over 12 days. Tumor volumes were measured twice per week over the course of the experiment and tumor weights were measured upon excision of tumors at the end of the experiment (due to their large size, tumors from the Fc and H1H685P groups were collected 3 days before tumors from the VEGF Trap and combination groups). Averages (mean+/−standard deviation) of tumor growth from the beginning of treatment and of tumor weight were calculated for each group. Percent decrease of tumor weight and growth are calculated from comparison to the Fc control group.

**Q.** What does the source list for “H1H685P: human anti-Ang-2 antibody, HCVR/LCVR SEQ ID NOs 18/20; also referred to as mAb1 [Antibody H1H685P]”?
**A.** Kd (hAng-2FD-mFc F-469-L): 13.8 nM; RU (hAng-2FD-mFc F-469-L): 101.16 RU; Kd (WT Ang-2FD-mFc construct): 0.0223 nM; RU (WT Ang-2FD-mFc construct): 210.70 RU; kd, binding to hAng-2-WT (hAng-2-WT; 25° C.): 1.6e-05 s⁻¹ and 8.5e-06 s⁻¹; kd, binding to hAng-2-WT (hAng-2-WT; 37° C.): 3.76e-05 s⁻¹ and 2.16e-05 s⁻¹; Kd (Monomeric hAng-2FD): 0.578 nM; Kd (hAng-2FD-mFc I-434-M): 0.0179 nM; RU (hAng-2FD-mFc I-434-M): 235.95 RU; % Decrease in Tumor Growth (MMT tumors): 15%; % Decrease in Tumor Weight (MMT tumors): 11%; Avg Tumor Growth (MMT tumors): 1135 ± 306 mm^3; Avg Tumor Weight (MMT tumors): 1.409 ± 0.314 g
